# Assays:
# [1] = molecular target: T1, recombinant RSV F protein, strain A2, extracellular domain (Respiratory Syncytial Virus strain A2, UniProt P03420 26-524); experiment: ELISA, purified Fab, estimated EC50
# T1 construct: also called RSV F1 lysate (recombinant); RSV F lysate
# [2] = molecular target: native RSV F protein from the RSV A2 strain (Respiratory Syncytial Virus strain A2, UniProt P03420 26-574); experiment: cell-based or functional assay
binder,measurement,setting,value
"Fab 14G3 (Fab, V domains shown) VH: QVQLQESGPGLVKPSQTLSLTCTVSGASISSDNHYWSWIRQPPGKGLEWIASIYYTGGTNYNPSLKSRLALSIDTSGDQFSLKLSSVTAADTAVYYCVRGLFFITARPYWYFDLWGRGTLVAVSS VL: DVVMTQTPLSLSVTPGEPASISCRSSQSLLDSDDGNTYLDWYLQKPGQSPQLLIYTLSYRASGVPDRFSGSGSGTDFTLKISRVEADDVGIYYCMQRMEFPFTFGQGTRLDIKR",EC50,[1],8.2 nM
same,"ED50, plaque reduction, RSV A2",[2],3.4 nM
same,"ED50, plaque reduction, RSV A2 (mass concentration)",[2],0.172 µg/mL

# — US20140363427A1 (CRUCELL HOLLAND B V, published 2014)
